Measurements as given in paper PMC3510498.

Key:
[1] = biological target: Thermoanaerobacter tengcongensis RecO (Thermoanaerobacter tengcongensis MB4) (UniProt Q8RB48); experiment: SPR; Biacore3000, 25°C; TTERecO amine-coupled to CM5 chip (4900 RU); TTERecR and mutants injected (0.0125-4 µM), 20 mM HEPES pH 7.4, 200 mM NaCl, 0.005% Tween 20; 1:1 Langmuir model; apparent KD
[2] = biological target: TTERecR_(1-166) C-terminal deletion mutant (Thermoanaerobacter tengcongensis MB4) (UniProt Q8RDI4); experiment: SEC; Superdex-200, 0.5 ml/min, 50 mM Tris-HCl pH 7.5, 300 mM NaCl, 200 µg/ml, absorbance at 280 nm
[3] = biological target: TTERecR_(1-180) C-terminal deletion mutant (Thermoanaerobacter tengcongensis MB4) (UniProt Q8RDI4); experiment: as above
[4] = biological target: TTERecR_(16-196) N-terminal deletion mutant (Thermoanaerobacter tengcongensis MB4) (UniProt Q8RDI4); experiment: as above
[5] = biological target: Thermoanaerobacter tengcongensis RecO (Thermoanaerobacter tengcongensis MB4) (UniProt Q8RB48); experiment: SEC + AUC; SEC: Superdex-200, 0.5 ml/min, 50 mM Tris-HCl pH 7.5, 300 mM NaCl, 200 µg/ml; AUC: 20°C, 1 mg/ml in 5 mM Tris-HCl pH 7.5, 50 mM NaCl, 60 000 rpm (TTERecR, TTERecO) or 55 000 rpm (TTERecOR complex), SEDFIT
[6] = biological target: Thermoanaerobacter tengcongensis RecR, full-length (Thermoanaerobacter tengcongensis MB4) (UniProt Q8RDI4); experiment: as above

TTERecR_(1-166) C-terminal deletion mutant (from UniProt Q8RDI4 1-166) (domain or fragment)
Kd [1]: 359 nM
stoichiometry N [2]: 2

TTERecR_(1-180) C-terminal deletion mutant (from UniProt Q8RDI4 1-180) (domain or fragment)
Kd [1]: 1480 nM
stoichiometry N [3]: 2

TTERecR_(16-196) N-terminal deletion mutant (from UniProt Q8RDI4 16-196) (domain or fragment)
stoichiometry N [4]: 2

Thermoanaerobacter tengcongensis RecR, full-length (from UniProt Q8RDI4 1-199) (natural protein)
Kd [1]: 186 nM
stoichiometry N (RecR per RecO) [5]: 2
stoichiometry N [6]: 2
